Key:
MMP14 catalytic domain = molecular target: T1, MMP14 catalytic domain (UniProt P50281 112-285); test: enzyme activity (inhibition) assay with a fluorogenic substrate; various concentrations of N-TIMP2 pre-incubated 1 hour with MMP9 (0.2 nM) or MMP14 (0.5 nM) in 50 mM Tris-HCl, 0.15 M NaCl, 10 mM CaCl2, 0.02% Brij 35, pH 7.5, 37°C; fraction of enzyme activity fitted to a 1:1 binding model to give Kd; conditions: both partners purified
T1 construct: Matrix Metalloproteinase 14 (MMP14), catalytic domain; source: expressed recombinantly and purified as published before [12]

MMP9 catalytic domain = molecular target: T2, MMP9 catalytic domain (UniProt P14780 107-444); test: as above; conditions: both partners purified
T2 construct: Matrix Metalloproteinase 9 (MMP9), catalytic domain; source: expressed recombinantly and purified as published before [12]
T2 sequence (P14780 107-444): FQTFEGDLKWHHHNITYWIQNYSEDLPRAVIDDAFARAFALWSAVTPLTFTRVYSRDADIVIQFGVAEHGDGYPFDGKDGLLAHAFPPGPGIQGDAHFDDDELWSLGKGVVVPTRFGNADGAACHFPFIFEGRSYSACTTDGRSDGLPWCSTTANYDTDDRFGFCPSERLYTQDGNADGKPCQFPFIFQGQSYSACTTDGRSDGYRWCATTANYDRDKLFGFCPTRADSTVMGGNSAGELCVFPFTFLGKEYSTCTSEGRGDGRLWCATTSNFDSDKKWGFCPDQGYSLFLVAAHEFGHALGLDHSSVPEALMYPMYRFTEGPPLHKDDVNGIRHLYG

| Binder | Kd (MMP14 catalytic domain) [nM] | Kd (MMP9 catalytic domain) [nM] |
| --- | --- | --- |
| N-TIMP2 WT (N-terminal domain of Tissue Inhibitor of Metalloproteinases 2, residues 1-127) (domain or fragment, human, UniProt P16035 27-153, looked up, Monomeric fraction used; also called WT N-TIMP2) CSCSPVHPQQAFCNADVVIRAKAVSEKEVDSGNDIYGNPIKRIQYEIKQIKMFKGPEKDIEFIYTAPSSAVCGVSLDVGGKKEYLIAGKAEGDGKMHITLCDFIVPWDTLSTTQKKSLNHRYQMGCE | 4.5 | 0.9 |
| N-TIMP2 S68W (domain or fragment, human, UniProt P16035 27-153, looked up, TIMP2, human, N-terminal domain, residues 1-127) CSCSPVHPQQAFCNADVVIRAKAVSEKEVDSGNDIYGNPIKRIQYEIKQIKMFKGPEKDIEFIYTAPWSAVCGVSLDVGGKKEYLIAGKAEGDGKMHITLCDFIVPWDTLSTTQKKSLNHRYQMGCE | 0.91 | 0.37 |
| N-TIMP2 V71N (domain or fragment, human, UniProt P16035 27-153, looked up, TIMP2, human, N-terminal domain, residues 1-127) CSCSPVHPQQAFCNADVVIRAKAVSEKEVDSGNDIYGNPIKRIQYEIKQIKMFKGPEKDIEFIYTAPSSANCGVSLDVGGKKEYLIAGKAEGDGKMHITLCDFIVPWDTLSTTQKKSLNHRYQMGCE | 6.5 | 4.68 |
| N-TIMP2 S4A (domain or fragment, human, UniProt P16035 27-153, looked up, TIMP2, human, N-terminal domain, residues 1-127) CSCAPVHPQQAFCNADVVIRAKAVSEKEVDSGNDIYGNPIKRIQYEIKQIKMFKGPEKDIEFIYTAPSSAVCGVSLDVGGKKEYLIAGKAEGDGKMHITLCDFIVPWDTLSTTQKKSLNHRYQMGCE | 1.4 | 0.85 |
| N-TIMP2 H97R (domain or fragment, human, UniProt P16035 27-153, looked up, TIMP2, human, N-terminal domain, residues 1-127) CSCSPVHPQQAFCNADVVIRAKAVSEKEVDSGNDIYGNPIKRIQYEIKQIKMFKGPEKDIEFIYTAPSSAVCGVSLDVGGKKEYLIAGKAEGDGKMRITLCDFIVPWDTLSTTQKKSLNHRYQMGCE | 0.32 | 0.5 |
| N-TIMP2 V6R (domain or fragment, human, UniProt P16035 27-153, looked up, TIMP2, human, N-terminal domain, residues 1-127; also called V06R) CSCSPRHPQQAFCNADVVIRAKAVSEKEVDSGNDIYGNPIKRIQYEIKQIKMFKGPEKDIEFIYTAPSSAVCGVSLDVGGKKEYLIAGKAEGDGKMHITLCDFIVPWDTLSTTQKKSLNHRYQMGCE | 1.3 | 0.5 |
| N-TIMP2 N38Q (domain or fragment, human, UniProt P16035 27-153, looked up, TIMP2, human, N-terminal domain, residues 1-127) CSCSPVHPQQAFCNADVVIRAKAVSEKEVDSGNDIYGQPIKRIQYEIKQIKMFKGPEKDIEFIYTAPSSAVCGVSLDVGGKKEYLIAGKAEGDGKMHITLCDFIVPWDTLSTTQKKSLNHRYQMGCE | 3.4 | 2.4 |
| N-TIMP2 S68Y (domain or fragment, human, UniProt P16035 27-153, looked up, TIMP2, human, N-terminal domain, residues 1-127) CSCSPVHPQQAFCNADVVIRAKAVSEKEVDSGNDIYGNPIKRIQYEIKQIKMFKGPEKDIEFIYTAPYSAVCGVSLDVGGKKEYLIAGKAEGDGKMHITLCDFIVPWDTLSTTQKKSLNHRYQMGCE | 1.1 | 0.8 |
| N-TIMP2 I35K (domain or fragment, human, UniProt P16035 27-153, looked up, TIMP2, human, N-terminal domain, residues 1-127) CSCSPVHPQQAFCNADVVIRAKAVSEKEVDSGNDKYGNPIKRIQYEIKQIKMFKGPEKDIEFIYTAPSSAVCGVSLDVGGKKEYLIAGKAEGDGKMHITLCDFIVPWDTLSTTQKKSLNHRYQMGCE | 0.38 | 0.58 |

Further binders by falling Kd (MMP14 catalytic domain), results first:

| Kd (MMP14 catalytic domain) [nM] | Kd (MMP9 catalytic domain) [nM] | Binder |
| --- | --- | --- |
| 9.5 | 15.5 | N-TIMP2 S4E (domain or fragment, human, UniProt P16035 27-153, looked up, TIMP2, human, N-terminal domain, residues 1-127; also called S04E) CSCEPVHPQQAFCNADVVIRAKAVSEKEVDSGNDIYGNPIKRIQYEIKQIKMFKGPEKDIEFIYTAPSSAVCGVSLDVGGKKEYLIAGKAEGDGKMHITLCDFIVPWDTLSTTQKKSLNHRYQMGCE |
| 5.4 | 2.5 | N-TIMP2 I35E (domain or fragment, human, UniProt P16035 27-153, looked up, TIMP2, human, N-terminal domain, residues 1-127) CSCSPVHPQQAFCNADVVIRAKAVSEKEVDSGNDEYGNPIKRIQYEIKQIKMFKGPEKDIEFIYTAPSSAVCGVSLDVGGKKEYLIAGKAEGDGKMHITLCDFIVPWDTLSTTQKKSLNHRYQMGCE |
| 2.7 | 0.55 | N-TIMP2 S4R (domain or fragment, human, UniProt P16035 27-153, looked up, TIMP2, human, N-terminal domain, residues 1-127; also called S04R) CSCRPVHPQQAFCNADVVIRAKAVSEKEVDSGNDIYGNPIKRIQYEIKQIKMFKGPEKDIEFIYTAPSSAVCGVSLDVGGKKEYLIAGKAEGDGKMHITLCDFIVPWDTLSTTQKKSLNHRYQMGCE |
| 1.9 | 1.39 | N-TIMP2 S4Q (domain or fragment, human, UniProt P16035 27-153, looked up, TIMP2, human, N-terminal domain, residues 1-127; also called S04Q) CSCQPVHPQQAFCNADVVIRAKAVSEKEVDSGNDIYGNPIKRIQYEIKQIKMFKGPEKDIEFIYTAPSSAVCGVSLDVGGKKEYLIAGKAEGDGKMHITLCDFIVPWDTLSTTQKKSLNHRYQMGCE |
| 1.05 | 1.1 | N-TIMP2 T99Y (domain or fragment, human, UniProt P16035 27-153, looked up, TIMP2, human, N-terminal domain, residues 1-127) CSCSPVHPQQAFCNADVVIRAKAVSEKEVDSGNDIYGNPIKRIQYEIKQIKMFKGPEKDIEFIYTAPSSAVCGVSLDVGGKKEYLIAGKAEGDGKMHIYLCDFIVPWDTLSTTQKKSLNHRYQMGCE |

Reference: PMC3977929, “Affinity- and Specificity-Enhancing Mutations Are Frequent in Multispecific Interactions between TIMP2 and MMPs” (PLoS ONE, 2014)
